# According to patent US20210349104A1 (MESO SCALE TECHNOLOGIES, published 2021):
# B1: HCoV-OC43 S protein (other)
# chain: AVIGDLKCTSDNINDKDTGPPPISTDTVDVTNGLGTYYVLDRVYLNTTLFLNGYYPTSGSTYRNMALKGSVLLSRLWFKPPFLSDFINGIFAKVKNTKVIKDRVMYSEFPAITIGSTFVNTSYSVVVQPRTINSTQDGDNKLQGLLEVSVCQYNMCEYPQTICHPNLGNHRKELWHLDTGVVSCLYKRNFTYDVNADYLYFHFYQEGGTFYAYFTDTGVVTKFLFNVYLGMALSHYYVMPLTCNSKLTLEYWVTPLTSRQYLLAFNQDGIIFNAEDCMSDFMSEIKCKTQSIAPPTGVYELNGYTVQPIADVYRRKPNLPNCNIEAWLNDKSVPSPLNWERKTFSNCNFNMSSLMSFIQADSFTCNNIDAAKIYGMCFSSITIDKFAIPNGRKVDLQLGNLGYLQSFNYRIDTTATSCQLYYNLPAANVSVSRFNPSTWNKRFGFIEDSVFKPRPAGVLTNHDVVYAQHCFKAPKNFCPCKLNGSCVGSGPGKNNGIGTCPAGTNYLTCDNLCTPDPITFTGTYKCPQTKSLVGIGEHCSGLAVKSDYCGGNSCTCRPQAFLGWSADSCLQGDKCNIFANFILHDVNSGLTCSTDLQKANTDIILGVCVNYDLYGILGQGIFVEVNATYYNSWQNLLYDSNGNLYGFRDYIINRTFMIRSCYSGRVSAAFHANSSEPALLFRNIKCNYVFNNSLTRQLQPINYFDSYLGCVVNAYNSTAISVQTCDLTVGSGYCVDYSKNRRSRGAITTGYRFTNFEPFTVNSVNDSLEPVGGLYEIQIPSEFTIGNMVEFIQTSSPKVTIDCAAFVCGDYAACKSQLVEYGSFCDNINAILTEVNELLDTTQLQVANSLMNGVTLSTKLKDGVNFNVDDINFSPVLGCLGSECSKASSRSAIEDLLFDKVKLSDVGFVEAYNNCTGGAEIRDLICVQSYKGIKVLPPLLSENQISGYTLAATSASLFPPWTAAAGVPFYLNVQYRINGLGVTMDVLSQNQKLIANAFNNALYAIQEGFDATNSALVKIQAVVNANAEALNNLLQQLSNRFGAISASLQEILSRLDALEAEAQIDRLINGRLTALNAYVSQQLSDSTLVKFSAAQAMEKVNECVKSQSSRINFCGNGNHIISLVQNAPYGLYFIHFSYVPTKYVTARVSPGLCIAGDRGIAPKSGYFVNVNNTWMYTGSGYYYPEPITENNVVVMSTCAVNYTKAPYVMLNTSIPNLPDFKEELDQWFKNQTSVAPDLSLDYINVTFLDLQVEMNRLQEAIKVLNQSYINLKDIGTYEY
# notes: also called S protein from HCoV-OC43
# B2: MERS-CoV S protein (other)
# chain: YVDVGPDSVKSACIEVDIQQTFFDKTWPRPIDVSKADGIIYPQGRTYSNITITYQGLFPYQGDHGDMYVYSAGHATGTTPQKLFVANYSQDVKQFANGFVVRIGAAANSTGTVIISPSTSATIRKIYPAFMLGSSVGNFSDGKMGRFFNHTLVLLPDGCGTLLRAFYCILEPRSGNHCPAGNSYTSFATYHTPATDCSDGNYNRNASLNSFKEYFNLRNCTFMYTYNITEDEILEWFGITQTAQGVHLFSSRYVDLYGGNMFQFATLPVYDTIKYYSIIPHSIRSIQSDRKAWAAFYVYKLQPLTFLLDFSVDGYIRRAIDCGFNDLSQLHCSYESFDVESGVYSVSSFEAKPSGSVVEQAEGVECDFSPLLSGTPPQVYNFKRLVFTNCNYNLTKLLSLFSVNDFTCSQISPAAIASNCYSSLILDYFSYPLSMKSDLSVSSAGPISQFNYKQSFSNPTCLILATVPHNLTTITKPLKYSYINKCSRFLSDDRTEVPQLVNANQYSPCVSIVPSTVWEDGDYYRKQLSPLEGGGWLVASGSTVAMTEQLQMGFGITVQYGTDTNSVCPKLEFANDTKIASQLGNCVEYSLYGVSGRGVFQNCTAVGVRQQRFVYDAYQNLVGYYSDDGNYYCLRACVSVPVSVIYDKETKTHATLFGSVACEHISSTMSQYSRSTRSMLKRRDSTYGPLQTPVGCVLGLVNSSLFVEDCKLPLGQSLCALPDTPSTLTPRSVRSVPGEMRLASIAFNHPIQVDQLNSSYFKLSIPTNFSFGVTQEYIQTTIQKVTVDCKQYVCNGFQKCEQLLREYGQFCSKINQALHGANLRQDDSVRNLFASVKSSQSSPIIPGFGGDFNLTLLEPVSISTGSRSARSAIEDLLFDKVTIADPGYMQGYDDCMQQGPASARDLICAQYVAGYKVLPPLMDVNMEAAYTSSLLGSIAGVGWTAGLSSFAAIPFAQSIFYRLNGVGITQQVLSENQKLIANKFNQALGAMQTGFTTTNEAFHKVQDAVNNNAQALSKLASELSNTFGAISASIGDIIQRLDVLEQDAQIDRLINGRLTTLNAFVAQQLVRSESAALSAQLAKDKVNECVKAQSKRSGFCGQGTHIVSFVVNAPNGLYFMHVGYYPSNHIEVVSAYGLCDAANPTNCIAPVNGYFIKTNNTRIVDEWSYTGSSFYAPEPITSLNTKYVAPQVTYQNISTNLPPPLLGNSTGIDFQDELDEFFKNVSTSIPNFGSLTQINTTLLDLTYEMLSLQQVVKALNESYIDLKELGNYTY
# notes: also called S protein from MERS-CoV
# B3: HCoV-HKU1 S protein (other)
# chain: AVIGDFNCTNFAINDLNTTVPRISEYVVDVSYGLGTYYILDRVYLNTTILFTGYFPKSGANFRDLSLKGTTYLSTLWYQKPFLSDFNNGIFSRVKNTKLYVNKTLYSEFSTIVIGSVFINNSYTIVVQPHNGVLEITACQYTMCEYPHTICKSKGSSRNESWHFDKSEPLCLFKKNFTYNVSTDWLYFHFYQERGTFYAYYADSGMPTTFLFSLYLGTLLSHYYVLPLTCNAISSNTDNETLQYWVTPLSKRQYLLKFDNRGVITNAVDCSSSFFSEIQCKTKSLLPNTGVYDLSGFTVKPVATVHRRIPDLPDCDIDKWLNNFNVPSPLNWERKIFSNCNFNLSTLLRLVHTDSFSCNNFDESKIYGSCFKSIVLDKFAIPNSRRSDLQLGSSGFLQSSNYKIDTTSSSCQLYYSLPAINVTINNYNPSSWNRRYGFNNFNLSSHSVVYSRYCFSVNNTFCPCAKPSFASSCKSHKPPSASCPIGTNYRSCESTTVLDHTDWCRCSCLPDPITAYDPRSCSQKKSLVGVGEHCAGFGVDEEKCGVLDGSYNVSCLCSTDAFLGWSYDTCVSNNRCNIFSNFILNGINSGTTCSNDLLQPNTEVFTDVCVDYDLYGITGQGIFKEVSAVYYNSWQNLLYDSNGNIIGFKDFVTNKTYNIFPCYAGRVSAAFHQNASSLALLYRNLKCSYVLNNISLTTQPYFDSYLGCVFNADNLTDYSVSSCALRMGSGFCVDYNSPSSSSSRRKRRSISASYRFVTFEPFNVSFVNDSIESVGGLYEIKIPTNFTIVGQEEFIQTNSPKVTIDCSLFVCSNYAACHDLLSEYGTFCDNINSILDEVNGLLDTTQLHVADTLMQGVTLSSNLNTNLHFDVDNINFKSLVGCLGPHCGSSSRSFFEDLLFDKVKLSDVGFVEAYNNCTGGSEIRDLLCVQSFNGIKVLPPILSESQISGYTTAATVAAMFPPWSAAAGIPFSLNVQYRINGLGVTMDVLNKNQKLIATAFNNALLSIQNGFSATNSALAKIQSVVNSNAQALNSLLQQLFNKFGAISSSLQEILSRLDALEAQVQIDRLINGRLTALNAYVSQQLSDISLVKFGAALAMEKVNECVKSQSPRINFCGNGNHILSLVQNAPYGLLFMHFSYKPISFKTVLVSPGLCISGDVGIAPKQGYFIKHNDHWMFTGSSYYYPEPISDKNVVFMNTCSVNFTKAPLVYLNHSVPKLSDFESELSHWFKNQTSIAPNLTLNLHTINATFLDLYYEMNLIQESIKSLN
# notes: also called S protein from HCoV-HKU1
# Molecular target: T1, ACE2 (angiotensin-converting enzyme 2), labeled (human, UniProt Q9BYF1 18-740)
# T1 construct: also called labeled ACE2
# Assay: labeled ACE2 on immobilized Mixed Panel, ECL
# T1 sequence (Q9BYF1 18-740 limits assumed): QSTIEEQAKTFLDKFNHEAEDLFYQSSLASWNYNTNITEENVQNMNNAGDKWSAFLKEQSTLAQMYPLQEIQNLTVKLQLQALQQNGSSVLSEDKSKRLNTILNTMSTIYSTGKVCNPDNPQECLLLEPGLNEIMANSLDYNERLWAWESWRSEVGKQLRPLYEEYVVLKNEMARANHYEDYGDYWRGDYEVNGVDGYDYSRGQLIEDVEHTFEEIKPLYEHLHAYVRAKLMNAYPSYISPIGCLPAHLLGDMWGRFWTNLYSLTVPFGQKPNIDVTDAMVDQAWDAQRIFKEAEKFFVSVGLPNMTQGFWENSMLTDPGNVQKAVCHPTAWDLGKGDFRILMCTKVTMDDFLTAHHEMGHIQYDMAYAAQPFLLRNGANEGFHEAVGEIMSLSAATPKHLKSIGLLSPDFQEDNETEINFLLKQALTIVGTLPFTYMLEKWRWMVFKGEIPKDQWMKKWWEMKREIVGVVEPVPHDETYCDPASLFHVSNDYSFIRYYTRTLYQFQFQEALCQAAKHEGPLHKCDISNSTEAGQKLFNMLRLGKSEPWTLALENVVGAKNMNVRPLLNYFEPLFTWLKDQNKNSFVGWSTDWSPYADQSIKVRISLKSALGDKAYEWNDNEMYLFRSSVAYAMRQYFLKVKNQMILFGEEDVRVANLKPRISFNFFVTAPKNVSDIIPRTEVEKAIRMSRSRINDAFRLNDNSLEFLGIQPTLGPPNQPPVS
row,Binder,binding result
1,B1,no binding
2,B2,no binding
3,B3,no binding
